Laboratory results as given in paper PMC4980427, “Ctf4 Links DNA Replication with Sister Chromatid Cohesion Establishment by Recruiting the Chl1 Helicase to the Replisome” (Molecular Cell, 2016).

Target: the molecule itself
Assay: negative-stain single-particle EM of reconstituted assemblies; purified Ctf4 core, GINS and Chl1 mixed in equimolar amounts; reconstituted assemblies on silver-stained gel and two-dimensional class averages

B1: Ctf4 (residues 471–927) (domain or fragment, S. cerevisiae, UniProt Q01454 471-927, looked up)
chain: TGKFRYMPFSPAGTPFGFTDRRYLTMNEVGYVSTVKNSEQYSITVSFFDVGRFREYHFEDLFGYDLCFLNEKGTLFGQSKTGQIQYRPHDSIHSNWTKIIPLQAGERITSVAATPVRVIVGTSLGYFRSFNQFGVPFAVEKTSPIVALTAQNYRVFSVHYSQFHGLSYSLSELGTSSKRYYKRECPLPMSLPNINSDMKKDANLDYYNFNPMGIKSLFFSSYGDPCIFGSDNTLLLLSKWRSPEESKWLPILDSNMEIWKMSGGKETTDIHVWPLALAYDTLNCILVKGKHIWPEFPLPLPSEMEIRMPVFVKSKLLEENKAILNKKNEIGADTEAEEGEEDKEIQIPVSMAAEEEYLRSKVLSELLTDTLENDGEMYGNENEVLAALNGAYDKALLRLFASACSDQNVEKALSLAHELKQDRALTAAVKISERAELPSLVKKINNIREARYEQQLK
notes: Ctf4 C-terminal trimerization core that contains the CIP box acceptor, residues 471-927; also called Ctf4 C-terminal trimerization core; Ctf4 core; source: E. coli, overexpressed, purified
With B1 the “stoichiometry N” value was 3.
